This is an account of results in article PMC8043444.

The target of this test is SARS-CoV-2 RBD WT for SPR binding assays (SARS-CoV-2) (UniProt P0DTC2).

The substance S309 IgG1 (LS) (antibody) registered a neutralisation of authentic SARS-CoV-2-Nluc on Vero E6 cells (IF/luc), IC50 of 78.9 and a neutralisation of authentic SARS-CoV-2-Nluc on Vero E6 cells (IF/luc), IC90 of 300.
